Key:
[1] = tested on: MC26 mouse colon tumor; conditions: treated animals; 25 days in the control animals; cited from earlier work
[2] = target: T1, gastrin-receptor expressed by AR42J cells (Rattus norvegicus, UniProt P30553); test: Immunofluorescence binding of antibodies to AR42J cells; conditions: peptide inhibitor 1.0 mg/ml; antibody 100 μg/ml
T1 construct: host or cells: AR42J rat pancreatic adenocarcinoma cells
T1 sequence (P30553 1-452): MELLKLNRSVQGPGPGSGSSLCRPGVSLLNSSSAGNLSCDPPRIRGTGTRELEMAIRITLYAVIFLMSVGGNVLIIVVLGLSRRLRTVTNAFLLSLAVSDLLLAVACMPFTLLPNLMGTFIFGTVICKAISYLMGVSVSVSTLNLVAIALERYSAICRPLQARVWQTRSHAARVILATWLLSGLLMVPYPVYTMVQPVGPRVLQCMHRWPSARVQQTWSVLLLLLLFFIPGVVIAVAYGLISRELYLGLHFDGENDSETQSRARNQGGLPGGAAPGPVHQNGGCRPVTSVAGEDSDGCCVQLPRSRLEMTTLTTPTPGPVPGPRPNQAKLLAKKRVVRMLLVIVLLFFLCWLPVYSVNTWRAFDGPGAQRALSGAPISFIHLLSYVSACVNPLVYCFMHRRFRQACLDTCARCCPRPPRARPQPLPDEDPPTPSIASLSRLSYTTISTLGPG
Method: Binding of the GRP1-Ser specific antibodies to AR42J cells was assessed by immunofluorescence. AR42J cells were grown as in the previous Examples and harvested with cell scrapers from 175 cm^2 T-flasks and washed twice with buffer (PBS with 0.02% NaN3) by centrinugation (400×g for 7 min). The cells were kept at 0-4° C. for all manipulations. A single cell suspension was prepared in buffer, and the cell concentration was adjusted to 10^6 cells/ml. The cell suspension was added to 1.5 ml microfuge tubes (1 ml/tube). The cells were pelleted by centrifugation and supernatants were aspirated. The cells were resuspended in buffer (0.1 ml/tube) containing peptide inhibitors (1.0 mg/ml). The inhibitors included GRP1-Ser, GnRH, hG17(9)-Ser and buffer (no inhibitor). Antibodies, including the rabbit anti-GRP1-Ser (100 μg/ml), affinity purified rabbit anti-DT (negative control, 100 μg/ml), mouse anti-AR42J antiserum (positive control, 1:100 dilution, heat inactivated) or normal mouse serum were added to the appropriate tubes and the contents were mixed. The cells were incubated for 1 hour, with occasional mixing. […] Fluorescence was scored on a scale of 0 to 4, with 0 representing background fluorescence (obtained with the normal mouse serum) and 4 representing maximal fluorescence (obtained with the mouse anti-AR42J positive control antiserum).

[3] = target: T2, CCK-B/gastrin-receptor on AR42J cells (Rattus norvegicus, UniProt P30553); test: Radioligand (125I-hG17) binding inhibition on AR42J cells
T2 construct: host or cells: AR42J rat pancreatic adenocarcinoma cells
T2 sequence (P30553 1-452): T1 sequence (P30553 1-452)
Method: AR42J tumor cells (European Collection of Animal Cell cultures, Porton Down, UK) are derived from a rat pancreatic adenocarcinoma and are known to have well characterized CCK-B/gastrin-receptors. Thus AR42J were tested to confirm the expression of CCK-B/gastrin-receptor and specificity of the receptor for hH17 by radioligand inhibition. AR42J cells were cultured at 37° C. with 7% CO2 in complete RPMI 1640 (Sigma) supplemented with 10% FCS (Gemini Bioproducts), 2 mM glutamine (JRH Biosciences), 1 mM sodium pyruvate (JRH B.) and 50 μg/ml gentamicin (Gemini Bioproducts). The cells were harvested from 175 cm^2 T-flasks (Falcon Plastics) with PBS containing 0.25% EDTA, then washed twice with PBS (no EDTA) by centrifugation (400×g for 10 min). The cells were kept at 0-4° C. for all manipulations. A single cell suspension was prepared in buffer, and the cell concentration was adjusted to 10^6 cells/ml. Aliquots of 1 ml of cell suspension were added to 12×75 mm culture tubes, then the cells were centrifuged and the supernatants discarded. The cells were resuspended in PBS (0.1 ml/tube) containing human G17 (hG17), gonadotropin releasing hormone (GnRH), or no peptide. The peptide concentrations were 1.0 ng/ml, 100 ng/ml and 10 μg/ml. An aliquot of 0.1 ml of ^125I-hG17 (NEN), containing approximately 26,300 CPM (specific activity, 2200 Ci/mmol), was added to each tube. The tubes were vortexed, then incubated for 15 minutes. The cells were washed twice with PBS, then counted in a γ counter (Wallac). Samples were run in duplicate. Background counts were subtracted, then the % inhibition of ^125I-hG17 binding by each inhibitor was calculated using the equation: % Inhibition=(100)(1−((CPMuninhibited−CPMinhibited)/CPMuninhibited).

[4] = tested on: affinity purified anti-GRP1 Ab binding to GRP1-Ser-BSA; test: Inhibition ELISA, specificity of affinity purified anti-GRP1 antibodies; set-up: species or system rabbit; conditions: anti-GRP1 Ab 10 ng/ml; inhibitor 1:10 dilution series
Method: The following experiments were performed to establish the specificity of antibodies raised in rabbits against the GRP1-DT peptide containing Ser spacer described Example 1 using Method B. A series of tests were conducted to assess the specificity of rabbit antibodies induced by immunization with the GRP1-DT and affinity purified by immunoadsorption over a GRP1-Ser Sepharose column.
An inhibition ELISA was used to assess the specificity of the affinity purified antibodies for GRP1-Ser peptide. The assays were run as follows: GRP1-Ser-BSA conjugate was coated onto 96 well plates (Immulon U bottom) by overnight incubation of 50 μl of a 2 μg/ml solution of conjugate in glycine buffer (0.1M, pH=9.5) at 4° C. Affinity purified anti-GRP1 Ab (at a final concentration of 10 ng/ml) was combined with various inhibitors (in 1:10 dilution series) and incubated for 1 hour at room temperature. The inhibitors included GRP1-Ser, GRP1 EPT, Ser, human gastrin 17(1-9)-Ser spacer (hG17(9)-Ser), GRP1 EPT+Ser, and buffer (no inhibitor). Incubation buffer consisted of PBS+0.5% BSA+0.05% Tween 20+0.02% NaN3. Subsequent steps used the same buffer without BSA. The 96 well plates were washed free of nonbound GRP1-Ser-BSA, and the Ab+inhibitor mixtures were added (50 μl/well). After 1 hour, the plates were washed and a goat anti-rabbit Ig (H+L) alkaline phosphatase conjugate (Zymed) was added (1:2000 dilution). […] Following a 60 minute incubation, absorbance was measured on a MRX reader (Dynatech Laboratories). Samples were run in duplicate, and means were calculated for each concentration. Background binding (established with affinity purified rabbit anti-GnRH antibodies) was subtracted from all values, and the % Inhibition relative to no inhibitor added (anti-GRP1 Ab+buffer) was calculated for each inhibitor tested: % Inhibition=(100)(1−((Auninhibited−Ainhibited)/Auninhibited), where A=Absorbance. The results are shown in FIG. 4.

Compound | inhibition of anti-GRP1-Ser antibody binding to AR42J cells [2] | inhibition of antibody binding to GRP1-Ser-BSA [4] | further results
CCCN(CCC)C(=O)C(CCC(=O)O)NC(=O)c1ccccc1 (stereo not drawn) [proglumide] |  |  | survival of xenograft mice bearing MC26 [1]: 39 days
GnRH: gonadotropin releasing hormone | failed to inhibit |  | inhibition of 125I-hG17 binding to AR42J cells ([3]; 100 pg, considered to be nonspecific): 6%; inhibition of 125I-hG17 binding to AR42J cells ([3]; two highest concentrations tested): no inhibition
KLNRSVQGTGPGPGASL [GRP1 EPT] |  | Approximately 60% | 
SSPPPPC [Ser spacer] |  | No inhibition | 
hG17(9)-Ser: amino-terminal nine residues of hG17 followed by the Ser spacer (QGPWLEEEESSPPPPPC) | failed to inhibit | No inhibition | 
hG17: human G17, heptadecagastrin |  |  | inhibition of 125I-hG17 binding to AR42J cells ([3]; 1 μg per tube, highest concentration tested): 32%

Source: US6548066B1, “Immunogenic compositions to the CCK-B/gastrin receptor and methods for the treatment of tumors” (Aphton Corporation, priority 1997, dated 2003)
